Molecular target: T1, Epstein-Barr virus (EBV)-encoded glycoprotein 350 (gp350) (Epstein-Barr virus, UniProt P03200 1-860)
T1 construct: also called EBV gp350; column-purified EBV gp350 protein
T1 sequence: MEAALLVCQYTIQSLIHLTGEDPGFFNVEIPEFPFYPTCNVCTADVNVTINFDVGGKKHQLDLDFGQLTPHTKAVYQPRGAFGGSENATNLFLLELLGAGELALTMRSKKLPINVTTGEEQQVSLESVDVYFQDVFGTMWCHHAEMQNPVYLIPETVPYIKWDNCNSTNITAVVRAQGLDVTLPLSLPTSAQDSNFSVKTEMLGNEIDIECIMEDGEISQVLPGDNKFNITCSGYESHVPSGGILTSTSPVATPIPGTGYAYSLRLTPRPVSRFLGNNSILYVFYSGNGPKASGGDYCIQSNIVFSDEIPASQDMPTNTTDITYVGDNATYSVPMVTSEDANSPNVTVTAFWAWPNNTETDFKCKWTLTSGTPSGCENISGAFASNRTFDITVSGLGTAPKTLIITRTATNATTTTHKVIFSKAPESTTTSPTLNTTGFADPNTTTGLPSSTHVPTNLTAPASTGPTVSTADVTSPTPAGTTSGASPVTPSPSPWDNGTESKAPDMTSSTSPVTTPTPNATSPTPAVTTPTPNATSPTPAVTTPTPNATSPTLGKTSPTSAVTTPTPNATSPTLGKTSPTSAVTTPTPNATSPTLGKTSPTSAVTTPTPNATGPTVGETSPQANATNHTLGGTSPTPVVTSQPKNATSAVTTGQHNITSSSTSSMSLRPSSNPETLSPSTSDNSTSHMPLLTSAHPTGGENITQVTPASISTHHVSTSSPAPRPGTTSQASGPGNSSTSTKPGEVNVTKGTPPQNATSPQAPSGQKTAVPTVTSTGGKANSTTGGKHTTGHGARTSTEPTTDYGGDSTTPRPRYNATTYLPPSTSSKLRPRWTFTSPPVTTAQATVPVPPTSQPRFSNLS
Assay: ELISA, plate-coated purified gp350, HEK293T supernatant, anti-human IgG-HRP

B1: recombinant humanized (chimeric) 72A1 antibody, heavy chain 2 and lambda light chain (Vh2+L) (antibody, V domains shown)
VH: DVQLVESGGGLVQPGGSRKLSCAASGFTFSSFGMHWVRQAPEKGLEWVAYISSGSSTLHYADTVKGRFTISRDNPKNTLFLQMTSLRSEDTAMYYCARWGNYPHYAMDYWGQGTSVTVSS
VL: QAVLTQESALTTSPGETVTLTCRSSTGAVTTSNYANWVQEKPDHLFTGLIGGTNNRVPGVPARFSGSLIGDKAALTITGAQTEDEAIYFCVLWHSNHWVFGGGTKLTVL
notes: Murine variable regions on human IgG1 (pCIRN) and human IgK (pEIG) constant regions; HEK293T supernatant
**Q.** Does B1 bind?
**A.** Result: no binding (tested: supernatant diluted 1:2)
